The source of these data is paper PMC3553982 (Nucleic Acids Research, 2012).

A value given as a limit tells only on which side of the number the result lay.

Series [1] deals with 5-FAM labeled Rim1ΔC18 (FAM-Rim1ΔC18) (S. cerevisiae) (UniProt P32445). Put plainly: fluorescence polarisation.
The target of series [2] is 5-FAM labeled Rim1 (FAM-Rim1) (S. cerevisiae) (UniProt P32445). Put plainly: fluorescence polarisation. (In general: In fluorescence polarisation assays a small probe gives low polarisation when free and higher when bound to something large.)
Series [3] addresses Human mitochondrial SSB (HsmtSSB) (human) (UniProt Q04837). Kind of series: pull-down.
A further series concerns the target Rim1ΔC18 (S. cerevisiae) (UniProt P32445). Put plainly: pull-down.
A further series concerns the target T1, Rim1ΔC18 (Saccharomyces cerevisiae, UniProt P32445 18-117, del118-135).
T1 sequence: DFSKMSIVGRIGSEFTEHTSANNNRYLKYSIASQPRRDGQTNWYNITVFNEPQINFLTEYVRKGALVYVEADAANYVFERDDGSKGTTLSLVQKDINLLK
Put plainly: fluorescence anisotropy.

The target in another series is T2, Rim1 (Saccharomyces cerevisiae, UniProt P32445 18-135).
T2 sequence: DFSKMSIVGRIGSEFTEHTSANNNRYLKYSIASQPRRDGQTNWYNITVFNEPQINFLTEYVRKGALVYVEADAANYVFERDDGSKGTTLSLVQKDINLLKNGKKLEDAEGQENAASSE
Kind of series: fluorescence anisotropy.

The series “SEC-MALS” concerns the molecule itself. Kind of series: SEC-MALS. (Size exclusion chromatography separates by hydrodynamic size, large species first.)

The Kd is a measure of binding affinity in units of concentration. Higher therefore signals a looser complex. A word on the stoichiometry N: it is the number of molecules, sites or subunits per partner or assembly.

Chain of Human mitochondrial SSB (HsmtSSB) (human) (Q04837 17-148): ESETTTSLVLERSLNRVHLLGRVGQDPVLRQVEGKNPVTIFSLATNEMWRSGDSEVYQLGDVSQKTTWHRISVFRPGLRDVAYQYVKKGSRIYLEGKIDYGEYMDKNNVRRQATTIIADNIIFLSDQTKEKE

Take “Pif1 (recombinant, nuclear form) (from UniProt P07271 46-859) (enzyme)”: the dissociation constant (Kd) was found to be 2500 nM in series [1] and 690 nM in series [2]. Moreover, the relative amount of Pif1 co-precipitated (Pif1 bound to Rim1 taken as 1) in series [3] came out at 0.63; with Rim1ΔC18 (S. cerevisiae), 0.45.

B1: 3'F-T70 (ssDNA)
DNA: TTTTTTTTTTTTTTTTTTTTTTTTTTTTTTTTTTTTTTTTTTTTTTTTTTTTTTTTTTTTTTTTTTTTTT
For B1, the Kd in the series with Rim1ΔC18 and with Rim1 was < 1 nM in each case.

B2: Rim1ΔC18 (domain or fragment, S. cerevisiae, UniProt P32445 18-117, looked up)
chain: T1 sequence
On to B2, for which the “stoichiometry N” value in “SEC-MALS” was found to be 4.
